How the values were obtained:
[1] = target: ZEN-4 1-585mAG (C. elegans)
[2] = target: VenusZ435-555 (ZEN-4 neck and coiled coil with the motor domain replaced by Venus) (C. elegans); assay: SDS-PAGE and densitometry of the purified complex; band intensities of the ZEN-4 and CYK-4 fragments, staining assumed proportional to molecular weight
Chain of VenusZ435-555 (ZEN-4 neck and coiled coil with the motor domain replaced by Venus) (C. elegans) (main, as listed by the source): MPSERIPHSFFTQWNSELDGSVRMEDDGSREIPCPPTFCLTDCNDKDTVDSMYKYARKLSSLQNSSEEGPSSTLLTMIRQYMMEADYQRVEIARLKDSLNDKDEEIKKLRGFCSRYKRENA

microtubule gliding velocity of surface-immobilised Z585mAG co-purified with C120 (180 nm/s for Z585mAG alone) [1]: 30 nm/s
stoichiometry N (C120 per ZEN-4 fragment) [2]: 0.94
Substance: CYK-4 1-120 (domain or fragment)
